Laboratory results from patent US20200197440A1 (LENTIGEN TECHNOLOGY, published 2020).

B1: CAR construct LTG2090 (hScFv aCD38 CD8 TM 4-1BB CD3 zeta) (other)
chain: EVQLVESGGGSVQPGGSLRLSCAASEFTFSSYWMHWVRQAPGKGLEWVAVISYDGAKKYYADSVKGRFTISRDNSKNTLYLQMNSLRAEDTAVYYCARDDGSGGFDYWGQGTLVTVSSGGGGSGGGGSGGGGSDIVMTHTPLSLSVTPGQPASISCKSSQSLLHSDGKTYLYWYLQKPGQPPQLLIYEVSNRFSGVPDRYSGSGSGTDFTLKISRVEAEDVGVYYCMQSIQLPLTFGGGTKLEIKAAATTTPAPRPPTPAPTIASQPLSLRPEACRPAAGGAVHTRGLDFACDIYIWAPLAGTCGVLLLSLVITLYCKRGRKKLLYIFKQPFMRPVQTTQEEDGCSCRFPEEEEGGCELRVKFSRSADAPAYQQGQNQLYNELNLGRREEYDVLDKRRGRDPEMGGKPRRKNPQEGLYNELQKDKMAEAYSEIGMKGERRRGKGHDGLYQGLSTATKDTYDALHMQALPPR
notes: Chimeric antigen receptor on transduced human primary T cells
B2: CAR construct LTG2099 (hScFv aCD38 CD8 TM 4-1BB CD3 zeta) (other)
chain: QVTLKESGPVLVKPTETLTLTCTFSGFSLSTSGVGVAWIRQPPGKDLEWLALIYWDDDKRYSPSLESRLTITKDTSKNQVALTMSDMDPVDTATYYCARGDYWGRLDYWGQGTLVTVSSGGGGSGGGGSGGGGSDIQLTQSPSSLSASIGDRVTITCQASEDINNYLNWYQQKPGKAPKLLIYDASNLETGVPSRFSGSGSGTDFTFTINSLQPEDIATYYCQQFDNMPLTFGGGTKLEIKAAATTTPAPRPPTPAPTIASQPLSLRPEACRPAAGGAVHTRGLDFACDIYIWAPLAGTCGVLLLSLVITLYCKRGRKKLLYIFKQPFMRPVQTTQEEDGCSCRFPEEEEGGCELRVKFSRSADAPAYQQGQNQLYNELNLGRREEYDVLDKRRGRDPEMGGKPRRKNPQEGLYNELQKDKMAEAYSEIGMKGERRRGKGHDGLYQGLSTATKDTYDALHMQALPPR
notes: as for B1
B3: CAR construct LTG2098 (hScFv aCD38 CD8 TM 4-1BB CD3 zeta) (other)
chain: QVQLQQSGPGLVKPSQTLSLTCVISGDSVSSNSAAWNWIRQSPSRGLEWLGRTYYRSKWHNDYAVSVESRIIVNPDTSKNQFSLQLNSVTPEDTAVYYCARDPGYFYGLDVWGQGTMVTVSSGGGGSGGGGSGGGGSNFMLTQPHSVSESPGKTVTIPCTRSSGTIADYYVQWYQQRPDSSPIIVIYDDNQRPSGVPDRFSGSIDSSSNSASLTISGLKTEDEAAYYCQSYDSTNHWVFGGGTKLTVLGAAATTTPAPRPPTPAPTIASQPLSLRPEACRPAAGGAVHTRGLDFACDIYIWAPLAGTCGVLLLSLVITLYCKRGRKKLLYIFKQPFMRPVQTTQEEDGCSCRFPEEEEGGCELRVKFSRSADAPAYQQGQNQLYNELNLGRREEYDVLDKRRGRDPEMGGKPRRKNPQEGLYNELQKDKMAEAYSEIGMKGERRRGKGHDGLYQGLSTATKDTYDALHMQALPPR
notes: as for B1

Target: CD38 on CD38-positive tumor lines RPMI-8226 and MM1.S (UniProt P28907 1-300, limits assumed)
Experiment: cell-based or functional assay

With B1 as the binder, how does the “tumor killing of RPMI-8226 at E:T ratio of 1:5 (so in the source)” value read?
The value was less than 70 % tumor killing.

B2 was tested. Which “tumor killing of RPMI-8226 at E:T ratio of 1:5 (so in the source)” value did it give?
Its value is less than 10 % tumor killing.

B3 was tested. Which “tumor killing of RPMI-8226 at E:T ratio of 1:5 (so in the source)” value did it give?
Its value is less than 40 % tumor killing.

Target: T1, CD38-His peptide (Thermo Fisher Scientific) (UniProt P28907 43-300, limits assumed)
T1 construct: Bought staining reagent, detected with anti-His-PE; also called CD38-His reagent; CD38-His tagged peptide; not shown: His tag
Experiment: flow cytometry of LV-transduced primary T cells stained with CD38-His, then anti-His PE

For B1, which “surface expression level, % CAR T+ (CD38-His staining)” value (shortened to “surface expression level, % CAR T+”) is on record?
The value was greater than 45%.

With B2 as the binder, how does the “surface expression level, % CAR T+” value read?
The value was greater than 65%.

Which “surface expression level, % CAR T+” value does the source give for B3 here?
Its value is greater than 75%.
